{"source": "patent US20190330344A1", "about": "(F STAR THERAPEUTICS, published 2019)", "molecules": {"B1": {"name": "anti-human LAG-3 Fcab FS18-7-95 with truncated hinge and LALA mutation (designed binder)", "chain": "TCPPCPAPEAAGGPSVFLFPPKPKDTLMISRTPEVTCVVVDVSHEDPEVKFNWYVDGVEVHNAKTKPREEQYNSTYRVVSVLTVLHQDWLNGKEYKCKVSNKALPAPIEKTISKAKGQPREPQVYTLPPSWDEPWGEDVSLTCLVKGFYPSDIAVEWESNGYQEDNYKTTPPVLDSDGSFFLYSKLTVPYDRWVWPDEFSCSVMHEALHNHYTQKSLSLSPG"}, "B2": {"name": "anti-human LAG-3 Fcab FS18-7-88 with truncated hinge and LALA mutation (designed binder)", "chain": "B1 chain with Y162V, Q163P, D165L, Y167V"}, "B3": {"name": "surrogate anti-mouse LAG-3 Fcab FS18-7-108-35 with truncated hinge, comprising LALA mutation (designed binder)", "chain": "B1 chain with A154S, Y162Q, Q163P, D165N, Y190F, D191E, V194M"}, "B4": {"name": "anti-human LAG-3 Fcab FS18-7-32 with truncated hinge and LALA mutation (designed binder)", "chain": "B1 chain with D152E, Y162Q, Q163P, D165N"}, "B5": {"name": "anti-human LAG-3 Fcab FS18-7-9 with truncated hinge and LALA mutation (designed binder)", "chain": "B1 chain with Y162Q, Q163P, D165N"}, "B6": {"name": "anti-human LAG-3 Fcab FS18-7-65 with truncated hinge and LALA mutation (designed binder)", "chain": "B1 chain with Q163A, D165Y"}, "B7": {"name": "anti-human LAG-3 Fcab FS18-7-58 with truncated hinge and LALA mutation (designed binder)", "chain": "B1 chain with Q163P, D165I, N166E, Y167F"}, "B8": {"name": "anti-human LAG-3 Fcab FS18-7-62 with truncated hinge and LALA mutation (designed binder)", "chain": "B1 chain with Y162I, Q163P, D165W"}, "B9": {"name": "anti-human LAG-3 Fcab FS18-7-36 with truncated hinge and LALA mutation (designed binder)", "chain": "B1 chain with Y162Q, Q163P, D165N, F180Y"}, "B10": {"name": "surrogate anti-mouse LAG-3 Fcab FS18-7-108-29 with truncated hinge, comprising LALA mutation (designed binder)", "chain": "B1 chain with A154V, Y162Q, Q163P, D165N, Y190F, D191E, V194M"}, "B11": {"name": "anti-human LAG-3 Fcab FS18-7-78 with truncated hinge and LALA mutation (designed binder)", "chain": "B1 chain with Q163K, D165E"}, "B12": {"name": "anti-human LAG-3 Fcab FS18-7-33 with truncated hinge and LALA mutation (designed binder)", "chain": "B1 chain with Y162Q, Q163P"}, "B13": {"name": "FS18-7-9/4420LALA (anti-human LAG-3 Fcab FS18-7-9 in mock mAb^2 format comprising the LALA mutation) (bispecific antibody, human IgG1, kappa, L234A L235A)", "heavy": "EVKLDETGGGLVQPGRPMKLSCVASGFTFSDYWMNWVRQSPEKGLEWVAQIRNKPYNYETYYSDSVKGRFTISRDDSKSSVYLQMNNLRVEDMGIYYCTGSYYGMDYWGQGTSVTVSSASTKGPSVFPLAPSSKSTSGGTAALGCLVKDYFPEPVTVSWNSGALTSGVHTFPAVLQSSGLYSLSSVVTVPSSSLGTQTYICNVNHKPSNTKVDKKVEPKSCDKTHTCPPCPAPEAAGGPSVFLFPPKPKDTLMISRTPEVTCVVVDVSHEDPEVKFNWYVDGVEVHNAKTKPREEQYNSTYRVVSVLTVLHQDWLNGKEYKCKVSNKALPAPIEKTISKAKGQPREPQVYTLPPSWDEPWGEDVSLTCLVKGFYPSDIAVEWESNGQPENNYKTTPPVLDSDGSFFLYSKLTVPYDRWVWPDEFSCSVMHEALHNHYTQKSLSLSPG", "light": "DVVMTQTPLSLPVSLGDQASISCRSSQSLVHSNGNTYLRWYLQKPGQSPKVLIYKVSNRFSGVPDRFSGSGSGTDFTLKISRVEAEDLGVYFCSQSTHVPWTFGGGTKLEIKRTVAAPSVFIFPPSDEQLKSGTASVVCLLNNFYPREAKVQWKVDNALQSGNSQESVTEQDSKDSTYSLSSTLTLSKADYEKHKVYACEVTHQGLSSPVTKSFNRGEC"}}, "key": {"human FcγRI (human)": {"molecular_target": "human FcγRI (human) (UniProt P12314)", "sequence (P12314 16-288 limits assumed)": "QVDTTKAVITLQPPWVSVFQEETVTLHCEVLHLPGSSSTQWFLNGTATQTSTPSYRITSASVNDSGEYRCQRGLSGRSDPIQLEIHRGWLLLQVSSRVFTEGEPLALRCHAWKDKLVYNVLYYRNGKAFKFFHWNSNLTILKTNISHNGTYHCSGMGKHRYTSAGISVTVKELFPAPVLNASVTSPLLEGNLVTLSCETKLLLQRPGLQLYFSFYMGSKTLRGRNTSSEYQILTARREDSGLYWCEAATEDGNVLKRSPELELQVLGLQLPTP", "experiment": "SPR (Biacore T200), FcγR immobilised, 200 µg/ml analyte"}, "human FcγRIII (human)": {"molecular_target": "human FcγRIII (human) (UniProt P08637)", "sequence (P08637 17-208 limits assumed)": "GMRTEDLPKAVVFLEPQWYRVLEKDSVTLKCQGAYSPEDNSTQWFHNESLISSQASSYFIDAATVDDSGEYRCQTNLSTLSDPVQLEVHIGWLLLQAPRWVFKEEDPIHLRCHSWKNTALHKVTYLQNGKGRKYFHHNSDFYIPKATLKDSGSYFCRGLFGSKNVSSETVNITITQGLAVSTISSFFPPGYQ", "experiment": "SPR (Biacore T200), FcγR immobilised, 200 µg/ml analyte"}, "human FcγRIIa (human)": {"molecular_target": "human FcγRIIa (human) (UniProt P12318)", "sequence (P12318 36-218 limits assumed)": "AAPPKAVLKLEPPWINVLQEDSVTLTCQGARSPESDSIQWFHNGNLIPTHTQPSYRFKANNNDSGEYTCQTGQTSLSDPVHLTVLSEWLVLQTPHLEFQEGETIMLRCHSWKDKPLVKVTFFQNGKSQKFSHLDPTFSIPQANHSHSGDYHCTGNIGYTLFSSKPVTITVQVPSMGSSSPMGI", "experiment": "SPR (Biacore T200), FcγR immobilised, 500 µg/ml analyte"}, "human FcγRIIb (human)": {"molecular_target": "human FcγRIIb (human) (UniProt P31994)", "sequence (P31994 46-217 limits assumed)": "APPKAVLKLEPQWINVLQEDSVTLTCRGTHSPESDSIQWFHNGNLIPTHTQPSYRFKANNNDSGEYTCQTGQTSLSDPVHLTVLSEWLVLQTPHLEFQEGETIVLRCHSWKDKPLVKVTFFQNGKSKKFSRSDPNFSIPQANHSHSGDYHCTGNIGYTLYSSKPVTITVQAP", "experiment": "SPR (Biacore T200), FcγR immobilised, 500 µg/ml analyte"}, "[1]": {"molecular_target": "mouse LAG-3 expressed on cells (HEK cells expressing mLAG-3 or DO11.10 mLAG-3) (mouse) (UniProt Q61790)", "experiment": "cell-based or functional assay"}, "[2]": {"molecular_target": "T1, human LAG-3 expressed on cells (DO11.10 or HEK 293 cells over-expressing human LAG-3) (human, UniProt P18627 23-525)", "T1 sequence": "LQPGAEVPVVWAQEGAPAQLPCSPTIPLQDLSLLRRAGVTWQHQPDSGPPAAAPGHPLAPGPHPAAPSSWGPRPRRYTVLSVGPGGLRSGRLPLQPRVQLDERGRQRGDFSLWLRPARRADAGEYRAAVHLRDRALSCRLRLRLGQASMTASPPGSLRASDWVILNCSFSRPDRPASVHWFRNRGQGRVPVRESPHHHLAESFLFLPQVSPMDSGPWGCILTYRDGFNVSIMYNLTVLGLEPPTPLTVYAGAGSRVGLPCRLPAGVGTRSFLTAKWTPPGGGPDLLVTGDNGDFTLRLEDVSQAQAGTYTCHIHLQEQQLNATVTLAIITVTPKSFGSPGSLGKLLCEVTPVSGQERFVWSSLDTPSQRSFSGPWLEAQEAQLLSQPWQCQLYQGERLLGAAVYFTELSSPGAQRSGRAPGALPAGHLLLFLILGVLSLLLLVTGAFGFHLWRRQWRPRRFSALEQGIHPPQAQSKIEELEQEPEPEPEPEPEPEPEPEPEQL", "experiment": "cell-based or functional assay"}, "[3]": {"molecular_target": "T2, mouse LAG-3 expressed on cells (HEK cells expressing mLAG-3 or DO11.10 mLAG-3) (mouse, UniProt Q61790 24-521)", "T2 sequence": "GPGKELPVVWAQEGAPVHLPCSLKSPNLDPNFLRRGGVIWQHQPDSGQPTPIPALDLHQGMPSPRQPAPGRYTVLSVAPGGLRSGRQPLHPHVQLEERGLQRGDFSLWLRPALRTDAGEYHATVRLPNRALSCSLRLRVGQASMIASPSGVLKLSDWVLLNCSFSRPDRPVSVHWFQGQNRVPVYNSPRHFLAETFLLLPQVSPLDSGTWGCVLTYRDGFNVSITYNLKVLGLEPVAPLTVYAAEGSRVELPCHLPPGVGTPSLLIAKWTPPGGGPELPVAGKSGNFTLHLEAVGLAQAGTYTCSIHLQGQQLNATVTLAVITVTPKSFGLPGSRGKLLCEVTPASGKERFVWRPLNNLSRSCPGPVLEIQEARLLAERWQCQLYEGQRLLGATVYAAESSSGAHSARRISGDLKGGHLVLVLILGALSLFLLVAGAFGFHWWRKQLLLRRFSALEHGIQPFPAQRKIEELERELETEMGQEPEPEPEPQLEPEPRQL", "experiment": "cell-based or functional assay"}, "[4]": {"molecular_target": "T3, cynomolgus LAG-3 expressed on DO11.10 cells (cynomolgus monkey, UniProt P18627 24-525 (human entry))", "T3 chain": "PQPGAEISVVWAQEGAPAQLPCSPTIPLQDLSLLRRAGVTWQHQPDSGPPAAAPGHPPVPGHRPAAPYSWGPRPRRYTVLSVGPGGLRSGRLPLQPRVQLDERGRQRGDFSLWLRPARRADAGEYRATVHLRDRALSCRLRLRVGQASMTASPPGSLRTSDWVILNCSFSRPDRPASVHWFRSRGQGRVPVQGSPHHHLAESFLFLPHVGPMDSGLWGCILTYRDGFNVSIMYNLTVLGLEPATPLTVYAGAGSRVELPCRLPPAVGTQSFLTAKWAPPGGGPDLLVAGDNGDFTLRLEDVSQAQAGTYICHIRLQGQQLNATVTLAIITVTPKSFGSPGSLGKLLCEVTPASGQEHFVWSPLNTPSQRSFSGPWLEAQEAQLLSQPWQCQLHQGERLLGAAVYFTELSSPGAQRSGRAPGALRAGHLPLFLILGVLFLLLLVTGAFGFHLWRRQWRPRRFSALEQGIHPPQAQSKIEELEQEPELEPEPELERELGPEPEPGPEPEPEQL", "experiment": "cell-based or functional assay"}}, "note": "Changes are numbered by the printed parent chain."}
{"molecule": "mock mAb LALA (control LALA IgG1 mAb) (antibody)", "values": [{"measurement": "Binding response at end of association (RU)", "setting": "human FcγRI (human)", "result": 2, "unit": "RU"}, {"measurement": "Binding response at end of association (RU)", "setting": "human FcγRIII (human)", "result": 8, "unit": "RU"}, {"measurement": "Binding response at end of association (RU)", "setting": "human FcγRIIa (human)", "result": -12.7, "unit": "RU"}, {"measurement": "Binding response at end of association (RU)", "setting": "human FcγRIIb (human)", "result": -9.6, "unit": "RU"}]}
{"molecule": "mock mAb IgG1 (wild type IgG1 isotype mAb, positive control without LALA) (antibody)", "values": [{"measurement": "Binding response at end of association (RU)", "setting": "human FcγRI (human)", "result": 26, "unit": "RU"}, {"measurement": "Binding response at end of association (RU)", "setting": "human FcγRIII (human)", "result": 44, "unit": "RU"}, {"measurement": "Binding response at end of association (RU)", "setting": "human FcγRIIa (human)", "result": 13, "unit": "RU"}, {"measurement": "Binding response at end of association (RU)", "setting": "human FcγRIIb (human)", "result": 17.7, "unit": "RU"}]}
{"molecule": "benchmark anti-mouse LAG-3 mAb C9B7W (2B Scientific, BE0174-50MG) (antibody)", "values": [{"measurement": "EC50 of mIL-2 release, DO11.10 T cell activation assay (mouse LAG-3)", "setting": "[1]", "result": 5.1, "unit": "nM"}, {"measurement": "Maximal IL-2 release", "setting": "[1]", "result": 48, "unit": "pg/mL"}]}
{"molecule": "B1", "values": [{"measurement": "EC50 of mIL-2 release, DO11.10 T cell activation assay (human LAG-3)", "setting": "[2]", "result": 0.8, "unit": "nM"}]}
{"molecule": "B2", "values": [{"measurement": "EC50 of mIL-2 release, DO11.10 T cell activation assay (human LAG-3)", "setting": "[2]", "result": 1.3, "unit": "nM"}]}
{"molecule": "B3", "values": [{"measurement": "EC50 of mIL-2 release, DO11.10 T cell activation assay (mouse LAG-3)", "setting": "[3]", "result": 1.8, "unit": "nM"}]}
{"molecule": "B4", "values": [{"measurement": "EC50 of mIL-2 release, DO11.10 T cell activation assay (human LAG-3)", "setting": "[2]", "result": 1.7, "unit": "nM"}]}
{"molecule": "B5", "values": [{"measurement": "EC50 of mIL-2 release, DO11.10 T cell activation assay (human LAG-3)", "setting": "[2]", "result": 1.2, "unit": "nM"}]}
{"molecule": "B6", "values": [{"measurement": "EC50 of mIL-2 release, DO11.10 T cell activation assay (human LAG-3)", "setting": "[2]", "result": 1.1, "unit": "nM"}]}
{"molecule": "B7", "values": [{"measurement": "EC50 of mIL-2 release, DO11.10 T cell activation assay (human LAG-3)", "setting": "[2]", "result": 1.3, "unit": "nM"}]}
{"molecule": "B8", "values": [{"measurement": "EC50 of mIL-2 release, DO11.10 T cell activation assay (human LAG-3)", "setting": "[2]", "result": 1.1, "unit": "nM"}]}
{"molecule": "B9", "values": [{"measurement": "EC50 of mIL-2 release, DO11.10 T cell activation assay (human LAG-3)", "setting": "[2]", "result": 1.3, "unit": "nM"}]}
{"molecule": "B10", "values": [{"measurement": "EC50 of mIL-2 release, DO11.10 T cell activation assay (mouse LAG-3)", "setting": "[3]", "result": 1.9, "unit": "nM"}]}
{"molecule": "B11", "values": [{"measurement": "EC50 of mIL-2 release, DO11.10 T cell activation assay (human LAG-3)", "setting": "[2]", "result": 1, "unit": "nM"}]}
{"molecule": "B12", "values": [{"measurement": "EC50 of mIL-2 release, DO11.10 T cell activation assay (human LAG-3)", "setting": "[2]", "result": 1.1, "unit": "nM"}]}
{"molecule": "B13", "values": [{"measurement": "EC50 of mIL-2 release, cynomolgus LAG-3 DO11.10 T cell activation assay", "setting": "[4]", "result": 5.6, "unit": "nM"}]}
